Target: human CD160 (CD160 GPI isoform) on cells (human) (UniProt O95971)
Test: flow cytometry, percentage of labelled YT2C2 NK cells, 0.39-50 nM; the text means weaker binding

human CD160 (CD160 GPI isoform) on cells (human), sequence (O95971 25-159 limits assumed): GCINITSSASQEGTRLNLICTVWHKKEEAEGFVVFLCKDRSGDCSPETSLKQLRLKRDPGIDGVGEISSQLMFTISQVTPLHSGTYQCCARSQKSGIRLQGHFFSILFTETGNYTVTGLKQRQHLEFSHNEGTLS

- EC50, factor against H7 IgG4 (ELB01101): 2 fold
B1: Fab CH1 IgG1 D12 (Fab)
heavy: QVQLVQSGAEVKKPGASVKVSCKASGYTFSDFWMQWIRQAPGQGLEWIGAIYPGDDDARVTQKFRGRATLTADKSTSTAYMELSSLRSEDTAVYYCARRGIAAVVGGFDYWGQGTTLTVSSASTKGPSVFPLAPSSKSTSGGTAALGCLVKDYFPEPVTVSWNSGALTSGVHTFPAVLQSSGLYSLSSVVTVPSSSLGTQTYICNVNHKPSNTKVDKRV
light: EIVLTQSPATLSLSPGERATLSCRASQSISNHLHWYQQKPGQAPRLLIKYASQSISGIPARFSGSGSGTDFTLTISSLEPEDFAVYFCQQSNSWPLTFGGGTKVEIKRTVAAPSVFIFPPSDEQLKSGTASVVCLLNNFYPREAKVQWKVDNALQSGNSQESVTEQDSKDSTYSLSSTLTLSKADYEKHKVYACEVTHQGLSSPVTKSFNRGEC
